Data as given in patent US20150299277A1, “AGENT FOR TREATING OR PREVENTING SYSTEMIC INFLAMMATORY RESPONSE SYNDROME” (THE UNIVERSITY OF TOKYO, priority 2012, published 2015).
Entries after “also recorded” stand apart in the source; their conditions may differ.

Experiments:
[1] = system: Calf Thymus Histones on HUVEC; experiment: Cytotoxic assay: suppression of histone cytotoxicity on HUVEC; type: cell-based, human; conditions: 100 μg/mL Calf Thymus Histones, 40 μg/mL protein, 1 hr, PI staining, FACS
Procedure: After culturing for 1 hr in a medium concurrently containing 100 μg/mL Calf Thymus Histones and APC (200 nM), PTX3 (40 μg/mL), CRP (40 μg/mL) or SAP (40 μg/mL), the level of toxic activity was measured by FACS.
Normal human umbilical vein endothelial cells (HUVECs) were cultured in EGM2 medium (Clonetics). The cells after culture were washed with PBS, added with Opti-MEM medium containing an product of incubation of activated protein C (APC), PTX3, C reactive protein (CRP) or Serum amyloid P component (SAP) with histone for 1 hr, and the cells were further cultured for 1 hr. Propidium iodide (PI) was added to the medium after culture at a final concentration of 10 μg/mL, and the cells were stained for 10 min. The cells were washed with PBS, detached and analyzed by flow cytometry.
The histone cytotoxicity on HUVEC was evaluated by propidium iodide (PI) staining.
Lastly, capacity of suppressing the cytotoxic activity of histone was confirmed. Since this experiment requires a certain amount of protein and an endotoxin-elimination as treatment, a protein was expressed and purified at a 500 mL culture scale, and subjected to an endotoxin-elimination treatment (FIG. 18). In the case of PTX3 N-terminal domain, about 10 mg was obtained at a 500 mL culture scale, and a loss by the endotoxin-elimination treatment was scarcely observed. […] A capacity of fragment proteins obtained at a 500 mL scale on HUVEC to suppress histone cytotoxicity was studied. […] In consideration of the experiments relating to the binding and aggregation, all fragments were considered to possibly have a certain level of suppressive capacity.

[2] = molecular target: histone H4 (Homo sapiens, UniProt P62805); experiment: ELISA binding assay; design: purchased NEB; conditions: immobilized recombinant histone, absorbance at 450 nm
Procedure: (§1) Recombinant human histone (NEB) was adjusted to a concentration of 1 μg/mL in TBS, added to a 96 well ELISA plate, and immobilized at 4° C. overnight. The solution was discarded, a blocking buffer (TBS, 0.1% Triton-X100, 1% BSA) was added, and the plate was incubated at room temperature for 2 hr. The plate was washed four times with a wash buffer (TBS, 0.1% Triton-X100), recombinant PTX3 diluted to various concentrations with the blocking buffer was added to each well, and reacted at room temperature for 1 hr. After washing four times with the wash buffer, HRP-labeled antibody diluted with the blocking buffer was added, and reacted at room temperature for 1 hr. After washing four times with the wash buffer, TMB solution was added to carry out a color development reaction for 30 min, and the absorbance at 450 nm was measured. Assay was performed using all the buffers containing 4 mM CaCl2 or 4 mM EDTA.
(§2) The binding level between immobilized each recombinant histone and tag-free recombinant human PTX3 (rhPTX3) was measured by binding assay (ELISA). For the detection, HRP-labeled anti-PTX3 monoclonal antibody (PPZ1228) was used. ELISA was performed with duplicate wells for each point, and means and standard deviations were calculated from three independent experiments.
as §2, with “a tagged” for “tag-free recombinant”, “fragment” for “(rhPTX3)”, “For” for “For the”, “anti-His (6×His)” for “anti-PTX3 monoclonal”, “antibody” for “antibody (PPZ1228)”

[3] = molecular target: T1, histone H1 (Homo sapiens, UniProt P07305); experiment: ELISA binding assay; conditions: immobilized recombinant histone, absorbance at 450 nm
T1 construct: purchased NEB
Procedure: as §1, §2
as §2, with “a tagged” for “tag-free recombinant”, “fragment” for “(rhPTX3)”, “For” for “For the”, “anti-His (6×His)” for “anti-PTX3 monoclonal”, “antibody” for “antibody (PPZ1228)”

[4] = molecular target: T2, histone H3 (Homo sapiens, UniProt P68431); experiment: ELISA binding assay; conditions: immobilized recombinant histone, absorbance at 450 nm
T2 construct: purchased NEB
Procedure: as §1, §2
as §2, with “a tagged” for “tag-free recombinant”, “fragment” for “(rhPTX3)”, “For” for “For the”, “anti-His (6×His)” for “anti-PTX3 monoclonal”, “antibody” for “antibody (PPZ1228)”

[5] = system: Calf Thymus Histones; experiment: Aggregation with histone, absorbance at 310 nm; type: binding; conditions: mixture with Calf Thymus Histones
Procedure: The lower left figure and the lower right figure show the measurement results of absorbance at 310 nm of a mixture of a wild-type or oligomer formation capacity-deficient mutant of PTX3 N-terminal domain having each concentration and 0.1 mg/mL Calf Thymus Histones at 1:1 vol.
The aggregation activity of PTX3 and other pentraxins to histone was evaluated. Calf Thymus Histones (50 μg/mL) were mixed with a PTX3 fragment or the other pentraxin at each concentration, and the absorbance at the wavelength of 310 nm was measured. Before mixing, samples were dialyzed against 4 mM CaCl2-containing TBS.

[6] = system: each histone variant; experiment: Aggregation of each histone variant and PTX3 fragment, absorbance at 310 nm; type: binding; conditions: histone variant 50 μg/mL, PTX3 fragment 30 μg/mL
Procedure: Each histone variant (50 μg/mL) and each PTX3 fragment (30 μg/mL) were mixed, and the absorbance at the wavelength of 310 nm was measured. Before mixing, samples were dialyzed against 4 mM CaCl2-containing TBS.

[7] = system: fragment H3-8 on HUVEC; experiment: Suppression of cytotoxic activity of histone fragment on HUVEC; type: cell-based, human; conditions: fragment 250 μg/mL; full-length PTX3 at 80 μg/mL; HUVEC 1 hr
Procedure: (§3) Then, a suppressive effect of PTX3 on the cytotoxic activity of fragments […], H3-8, H3-11 and H4-9 was evaluated.
(§4) In the same manner as in FIGS. 7B-D, a suppressive effect of the N-terminal domain of PTX3 on the cytotoxic activity of histone H3 and H4 fragments was evaluated.

[8] = system: fragment H3-6 on HUVEC; experiment: as above; type: cell-based, human; conditions: fragment 250 μg/mL; full-length PTX3 at 80 μg/mL; HUVEC 1 hr
Procedure: as §3, §4

[9] = system: fragment H4-9 on HUVEC; experiment: as above; type: cell-based, human; conditions: fragment 250 μg/mL; full-length PTX3 at 80 μg/mL; HUVEC 1 hr
Procedure: as §3, §4

[10] = system: fragment H3-11 on HUVEC; experiment: as above; type: cell-based, human; conditions: fragment 250 μg/mL; full-length PTX3 at 80 μg/mL; HUVEC 1 hr
Procedure: as §3, §4

[11] = system: each histone; experiment: BIAcore / surface plasmon resonance (SPR) measurement; type: binding, human; conditions: immobilized recombinant histone
Procedure: For the measurement, BIAcore 3000 or T200 (GE Healthcare) was used. Recombinant human histone was immobilized on CM5 sensor chip by an amine coupling kit (GE Healthcare). The reaction with recombinant PTX3 was performed using a buffer (150 mM NaCl, 20 mM HEPES, 0.005% surfactant P20 (pH 7.4)) at a flow rate of 20 μl/min. Measurement was performed using the buffer containing […]. The sensor chip was regenerated in IM sodium acetate (10 μL, pH 7.2) and 10 mM NaOH (10 μL).
The binding of immobilized each recombinant histone, and Myc- and His-tagged human PTX3 fragment was measured by surface plasmon resonance (SPR). The highest concentration of each PTX3 was as follows. full-length PTX3: 1 nM, N-terminal domain of PTX3: 5 nM, C-terminal domain of PTX3: 50 nM. The assay buffer contained 4 mM CaCl2 (Ca^2+) or 4 mM EDTA/EGTA. The affinity measured by SPR was calculated from three experiments.

T1 sequence (P07305 whole entry): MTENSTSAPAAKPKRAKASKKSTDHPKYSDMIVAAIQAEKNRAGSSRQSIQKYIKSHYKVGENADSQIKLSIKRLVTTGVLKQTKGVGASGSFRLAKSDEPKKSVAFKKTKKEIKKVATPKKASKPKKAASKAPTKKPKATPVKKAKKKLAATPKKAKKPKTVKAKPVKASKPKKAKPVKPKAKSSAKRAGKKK

Substance | suppression of toxic activity of Calf Thymus Histones on HUVEC [1] | binding to histone H4 (binding assay) [2] | binding to histone H4 (binding assay) ([2]; listed as N-terminal domain) | binding to histone H1 (binding assay) [3] | binding to histone H1 (binding assay) ([3]; listed as N-terminal domain) | binding to histone H3 (binding assay) [4] | binding to histone H3 (binding assay) ([4]; listed as N-terminal domain) | aggregation with Calf Thymus Histones, absorbance at 310 nm [5] | aggregation with Calf Thymus Histones, absorbance at 310 nm ([5]; listed as N-terminal domain) | aggregation with each histone variant, absorbance at 310 nm [6] | suppressive effect on cytotoxic activity of fragment H3-8 [7] | suppressive effect on cytotoxic activity of fragment H3-6 [8] | suppressive effect on cytotoxic activity of fragment H4-9 [9] | suppressive effect on cytotoxic activity of fragment H3-11 [10] | affinity for each histone by SPR [11] | suppression of toxic activity of Calf Thymus Histones on HUVEC ([1]; listed as PTX3) | affinity for each histone by SPR ([11]; listed as PTX3)
N-terminal domain of PTX3: N-terminal domain human PTX3 (18-178 amino acids, SEQ ID NO: 3), tagged, expressed in CHO cells or Escherichia coli | suppress toxic activity of histone on HUVEC; also recorded: suppressed | equivalent to that of the full-length PTX3 | strong bindability | equivalent to that of the full-length PTX3 | strong bindability | equivalent to that of the full-length PTX3 | strong bindability | showed an aggregation activity with histone | an aggregation reaction | aggregated | neutralized | neutralized | neutralized | neutralized | full-length PTX3>N-terminal domain>C-terminal domain | – | –
full-length PTX3: full-length human pentraxin 3 (1-381 amino acids, SEQ ID NO: 2), used tag-free or Myc- and His-tagged | suppress toxic activity of histone on HUVEC | strong binding affinity | – | strong binding affinity | – | strong binding affinity | – | showed an aggregation activity with histone | – | aggregated | neutralized | neutralized | neutralized | neutralized | full-length PTX3>N-terminal domain>C-terminal domain | suppresses cytotoxic activity of extracellular histone on HUVEC to the same level as APC | extremely high
